The supplement of paper PMC10065799, “High-throughput profiling of sequence recognition by tyrosine kinases and SH2 domains using bacterial peptide display” (eLife, 2023)
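Also: 11-residue human phosphosite peptides and single-mutation variants displayed on the E. coli surface, counted by deep sequencing, each peptide's frequency after selection divided by its frequency in the unselected input library; frequency after pTyr selection over input frequency; kinase dosed for 20-30% of maximal phosphorylation in three min.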

What follows are sequences tested on AncSZ (assay: phosphorylation enrichment, bacterial display (enrichment ratio); higher = better substrate or ligand; peptides without Tyr show the background).
With KKCTRYIDCAL [ASPA_Y64_D68A] the phosphorylation enrichment was 0.684. ESMQSYDLDFP [UNC13B_Y243_D238E_YF] gave a phosphorylation enrichment of 0.909. Sequence DSFSSYCNAVA [SLC20A2_Y436_YF] has a phosphorylation enrichment of 1.24. For FTAVGYHKHIT [NOMO1_Y1137], the phosphorylation enrichment was 0.649. In the case of RFLERYIFNRE [HLA-DPB1_Y57_YF], the phosphorylation enrichment is reported as 0.786. With VEYAKYGSLRG [RET_Y809] the phosphorylation enrichment was 0.544. In the case of SRVNKYSTAFG [GJB3_Y16_G12R], the phosphorylation enrichment is reported as 0.571. HKDNNYVSMWF [PAPOLG_Y432] gave a phosphorylation enrichment of 1.36. VCRHNYGVVES [HLA-DRB1_Y112_Y107V] showed a phosphorylation enrichment of 0.768. With FLTSSYINIST [IL23R_Y178_YF] the phosphorylation enrichment was 0.834. HNLDFYKMTTN [FGFR3_Y648_K650M_YF] showed a phosphorylation enrichment of 2.03. Sequence RDVEQYVNNVN [PCDH19_Y1097_L1094V] has a phosphorylation enrichment of 0.928. RLDRSYSFSFS [PEAR1_Y890_YF] showed a phosphorylation enrichment of 1.06. For ETESPYQELQG [TYROBP_Y91], the phosphorylation enrichment was 1.24. In the case of SGGGSYGSGGG [KRT1_Y539], the phosphorylation enrichment is reported as 0.626. Sequence QMVRMYASSFM [AVPR2_Y124_G122R_YF] has a phosphorylation enrichment of 1.26. TKQLTYEEQYL [PIK3C3_Y310_D314Y] was tested, and the phosphorylation enrichment was 0.95. With QAKRKYQEVSK [FES_Y156_A159V] the phosphorylation enrichment was 0.463. In the case of GKTQQYDCKWF [BCR_Y751_YF], the phosphorylation enrichment is reported as 0.848. HVPEEYKPKQG [SAXO2_Y37] gave a phosphorylation enrichment of 0.827. Work on IATTIYSGDKI [UGGT2_Y823_A821T] yielded a phosphorylation enrichment of 0.638. Sequence LLSVAYKNVVR [YWHAZ_Y48_G53R] has a phosphorylation enrichment of 1.28. GREAEYSDKHG [EPHB4_Y574] showed a phosphorylation enrichment of 0.64. Sequence VAMDDYLKNVM [LRRK2_Y707] has a phosphorylation enrichment of 0.903. Work on LVSCTYQLARR [FGFR2_Y608_G613R] yielded a phosphorylation enrichment of 1.57. MPPHICAITDT [MYH9_Y151_Y151C] gave a phosphorylation enrichment of 0.809. In the case of NLMPAYFKCIQ [CYP21A2_Y190_YF], the phosphorylation enrichment is reported as 1.4. Work on FGSLLYKYAFK [FANCD2_Y458] yielded a phosphorylation enrichment of 0.839. IYETDYYQKGG [INSR_Y1189_R1191Q] showed a phosphorylation enrichment of 1.88. DENWFYTRAAS [RPS19_Y54] was tested, and the phosphorylation enrichment was 1.13. For LKVKAYRFSIS [LCT_Y974], the phosphorylation enrichment was 0.911. Work on LWQSIYNLDAE [TNNT2_Y251_E254D] yielded a phosphorylation enrichment of 1.38. Work on GGTPLYMDRQG [AGXT_Y194] yielded a phosphorylation enrichment of 0.606.

These sequences were tested against EPHB1 (UniProt P54762) in the same assay as above.
Chain of EPHB1 (P54762 whole entry, looked up): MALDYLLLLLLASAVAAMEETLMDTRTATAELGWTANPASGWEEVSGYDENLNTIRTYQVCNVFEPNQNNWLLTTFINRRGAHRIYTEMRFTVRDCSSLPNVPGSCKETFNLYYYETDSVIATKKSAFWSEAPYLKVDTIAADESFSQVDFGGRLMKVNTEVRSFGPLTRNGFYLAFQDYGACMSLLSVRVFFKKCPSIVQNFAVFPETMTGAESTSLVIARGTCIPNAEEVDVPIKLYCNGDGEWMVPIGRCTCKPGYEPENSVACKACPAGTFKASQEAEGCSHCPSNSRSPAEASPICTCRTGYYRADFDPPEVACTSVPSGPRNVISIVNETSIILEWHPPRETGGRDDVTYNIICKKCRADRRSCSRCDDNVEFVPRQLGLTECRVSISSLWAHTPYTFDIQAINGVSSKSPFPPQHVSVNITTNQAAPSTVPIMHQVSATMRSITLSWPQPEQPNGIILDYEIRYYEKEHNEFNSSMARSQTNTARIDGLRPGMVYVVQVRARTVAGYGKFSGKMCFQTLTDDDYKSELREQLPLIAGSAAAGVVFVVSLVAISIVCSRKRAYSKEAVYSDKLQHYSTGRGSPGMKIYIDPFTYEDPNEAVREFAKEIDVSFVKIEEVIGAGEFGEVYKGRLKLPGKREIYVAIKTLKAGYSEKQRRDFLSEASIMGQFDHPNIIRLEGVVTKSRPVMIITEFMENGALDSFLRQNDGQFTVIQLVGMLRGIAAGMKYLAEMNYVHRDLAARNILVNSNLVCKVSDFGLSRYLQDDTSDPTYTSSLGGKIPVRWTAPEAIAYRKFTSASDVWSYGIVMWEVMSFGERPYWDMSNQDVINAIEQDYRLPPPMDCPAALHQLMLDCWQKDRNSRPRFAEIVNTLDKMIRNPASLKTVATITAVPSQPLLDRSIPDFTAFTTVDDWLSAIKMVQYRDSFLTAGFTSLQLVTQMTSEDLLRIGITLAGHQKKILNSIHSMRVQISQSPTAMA
KKCTRYIDCAL [ASPA_Y64_D68A] was tested, and the phosphorylation enrichment was 0.374. In the case of ESMQSYDLDFP [UNC13B_Y243_D238E_YF], the phosphorylation enrichment is reported as 0.459. Work on DSFSSYCNAVA [SLC20A2_Y436_YF] yielded a phosphorylation enrichment of 0.642. FTAVGYHKHIT [NOMO1_Y1137] gave a phosphorylation enrichment of 0.382. RFLERYIFNRE [HLA-DPB1_Y57_YF] gave a phosphorylation enrichment of 0.324. In the case of VEYAKYGSLRG [RET_Y809], the phosphorylation enrichment is reported as 0.441. SRVNKYSTAFG [GJB3_Y16_G12R] showed a phosphorylation enrichment of 0.426. Work on HKDNNYVSMWF [PAPOLG_Y432] yielded a phosphorylation enrichment of 6.89. Sequence VCRHNYGVVES [HLA-DRB1_Y112_Y107V] has a phosphorylation enrichment of 0.82. Sequence FLTSSYINIST [IL23R_Y178_YF] has a phosphorylation enrichment of 0.437. In the case of HNLDFYKMTTN [FGFR3_Y648_K650M_YF], the phosphorylation enrichment is reported as 0.954. RDVEQYVNNVN [PCDH19_Y1097_L1094V] gave a phosphorylation enrichment of 0.545. For RLDRSYSFSFS [PEAR1_Y890_YF], the phosphorylation enrichment was 0.783. Work on ETESPYQELQG [TYROBP_Y91] yielded a phosphorylation enrichment of 0.624. SGGGSYGSGGG [KRT1_Y539] was tested, and the phosphorylation enrichment was 0.312. QMVRMYASSFM [AVPR2_Y124_G122R_YF] gave a phosphorylation enrichment of 0.59. Sequence TKQLTYEEQYL [PIK3C3_Y310_D314Y] has a phosphorylation enrichment of 0.551. With QAKRKYQEVSK [FES_Y156_A159V] the phosphorylation enrichment was 0.231. With GKTQQYDCKWF [BCR_Y751_YF] the phosphorylation enrichment was 0.596. In the case of HVPEEYKPKQG [SAXO2_Y37], the phosphorylation enrichment is reported as 0.493. IATTIYSGDKI [UGGT2_Y823_A821T] showed a phosphorylation enrichment of 0.576. For LLSVAYKNVVR [YWHAZ_Y48_G53R], the phosphorylation enrichment was 0.874. With GREAEYSDKHG [EPHB4_Y574] the phosphorylation enrichment was 0.392. Work on VAMDDYLKNVM [LRRK2_Y707] yielded a phosphorylation enrichment of 0.517. Sequence LVSCTYQLARR [FGFR2_Y608_G613R] has a phosphorylation enrichment of 0.816. For MPPHICAITDT [MYH9_Y151_Y151C], the phosphorylation enrichment was 0.628. Work on NLMPAYFKCIQ [CYP21A2_Y190_YF] yielded a phosphorylation enrichment of 0.74. For FGSLLYKYAFK [FANCD2_Y458], the phosphorylation enrichment was 0.468. In the case of IYETDYYQKGG [INSR_Y1189_R1191Q], the phosphorylation enrichment is reported as 1.2. For DENWFYTRAAS [RPS19_Y54], the phosphorylation enrichment was 0.547. With LKVKAYRFSIS [LCT_Y974] the phosphorylation enrichment was 0.672. In the case of LWQSIYNLDAE [TNNT2_Y251_E254D], the phosphorylation enrichment is reported as 0.883. For GGTPLYMDRQG [AGXT_Y194], the phosphorylation enrichment was 0.465.

These sequences were tested against EPHB2 (UniProt P29323) in the same assay as above.
Chain of EPHB2 (P29323 whole entry, looked up): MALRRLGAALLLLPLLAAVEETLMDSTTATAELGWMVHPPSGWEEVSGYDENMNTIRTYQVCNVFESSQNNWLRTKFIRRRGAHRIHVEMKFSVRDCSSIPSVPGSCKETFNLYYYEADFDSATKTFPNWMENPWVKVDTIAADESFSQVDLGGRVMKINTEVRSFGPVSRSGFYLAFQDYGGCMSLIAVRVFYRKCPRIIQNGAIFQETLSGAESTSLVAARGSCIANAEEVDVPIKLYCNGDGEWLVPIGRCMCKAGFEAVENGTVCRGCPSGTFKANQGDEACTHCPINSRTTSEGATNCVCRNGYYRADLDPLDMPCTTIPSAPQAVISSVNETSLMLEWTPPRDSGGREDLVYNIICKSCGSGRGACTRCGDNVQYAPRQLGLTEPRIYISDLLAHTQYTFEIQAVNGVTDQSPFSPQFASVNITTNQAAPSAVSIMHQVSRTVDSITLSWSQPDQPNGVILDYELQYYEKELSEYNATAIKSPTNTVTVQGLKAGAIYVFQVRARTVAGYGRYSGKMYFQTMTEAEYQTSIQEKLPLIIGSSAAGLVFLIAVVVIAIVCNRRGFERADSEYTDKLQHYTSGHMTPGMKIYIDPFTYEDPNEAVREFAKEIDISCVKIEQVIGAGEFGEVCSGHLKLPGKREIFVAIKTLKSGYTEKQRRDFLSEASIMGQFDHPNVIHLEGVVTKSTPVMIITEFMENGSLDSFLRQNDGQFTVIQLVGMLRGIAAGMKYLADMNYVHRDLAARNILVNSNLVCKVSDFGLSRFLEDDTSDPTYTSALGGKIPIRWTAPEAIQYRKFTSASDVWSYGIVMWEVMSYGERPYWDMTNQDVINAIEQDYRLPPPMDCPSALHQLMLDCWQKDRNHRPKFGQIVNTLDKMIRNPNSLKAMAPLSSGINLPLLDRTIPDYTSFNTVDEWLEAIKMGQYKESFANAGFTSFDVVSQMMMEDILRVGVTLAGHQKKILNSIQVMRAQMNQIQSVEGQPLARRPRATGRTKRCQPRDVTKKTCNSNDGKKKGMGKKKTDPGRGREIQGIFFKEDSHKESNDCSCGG
With KKCTRYIDCAL [ASPA_Y64_D68A] the phosphorylation enrichment was 0.394. ESMQSYDLDFP [UNC13B_Y243_D238E_YF] was tested, and the phosphorylation enrichment was 0.5. DSFSSYCNAVA [SLC20A2_Y436_YF] showed a phosphorylation enrichment of 0.826. FTAVGYHKHIT [NOMO1_Y1137] gave a phosphorylation enrichment of 0.414. In the case of RFLERYIFNRE [HLA-DPB1_Y57_YF], the phosphorylation enrichment is reported as 0.363. With VEYAKYGSLRG [RET_Y809] the phosphorylation enrichment was 0.409. In the case of SRVNKYSTAFG [GJB3_Y16_G12R], the phosphorylation enrichment is reported as 0.347. With HKDNNYVSMWF [PAPOLG_Y432] the phosphorylation enrichment was 4.55. With VCRHNYGVVES [HLA-DRB1_Y112_Y107V] the phosphorylation enrichment was 1.5. Work on FLTSSYINIST [IL23R_Y178_YF] yielded a phosphorylation enrichment of 0.434. HNLDFYKMTTN [FGFR3_Y648_K650M_YF] was tested, and the phosphorylation enrichment was 1.1. Work on RDVEQYVNNVN [PCDH19_Y1097_L1094V] yielded a phosphorylation enrichment of 0.594. In the case of RLDRSYSFSFS [PEAR1_Y890_YF], the phosphorylation enrichment is reported as 0.48. ETESPYQELQG [TYROBP_Y91] showed a phosphorylation enrichment of 0.646. Work on SGGGSYGSGGG [KRT1_Y539] yielded a phosphorylation enrichment of 0.282. With QMVRMYASSFM [AVPR2_Y124_G122R_YF] the phosphorylation enrichment was 0.552. For TKQLTYEEQYL [PIK3C3_Y310_D314Y], the phosphorylation enrichment was 0.603. Work on QAKRKYQEVSK [FES_Y156_A159V] yielded a phosphorylation enrichment of 0.443. Work on GKTQQYDCKWF [BCR_Y751_YF] yielded a phosphorylation enrichment of 0.563. With HVPEEYKPKQG [SAXO2_Y37] the phosphorylation enrichment was 0.434. IATTIYSGDKI [UGGT2_Y823_A821T] gave a phosphorylation enrichment of 0.557. In the case of LLSVAYKNVVR [YWHAZ_Y48_G53R], the phosphorylation enrichment is reported as 0.88. GREAEYSDKHG [EPHB4_Y574] showed a phosphorylation enrichment of 0.44. For VAMDDYLKNVM [LRRK2_Y707], the phosphorylation enrichment was 0.409. With LVSCTYQLARR [FGFR2_Y608_G613R] the phosphorylation enrichment was 1.28. Work on MPPHICAITDT [MYH9_Y151_Y151C] yielded a phosphorylation enrichment of 0.53. For NLMPAYFKCIQ [CYP21A2_Y190_YF], the phosphorylation enrichment was 0.707. FGSLLYKYAFK [FANCD2_Y458] showed a phosphorylation enrichment of 0.391. With IYETDYYQKGG [INSR_Y1189_R1191Q] the phosphorylation enrichment was 0.948. In the case of DENWFYTRAAS [RPS19_Y54], the phosphorylation enrichment is reported as 0.517. For LKVKAYRFSIS [LCT_Y974], the phosphorylation enrichment was 0.498. Work on LWQSIYNLDAE [TNNT2_Y251_E254D] yielded a phosphorylation enrichment of 1.18. For GGTPLYMDRQG [AGXT_Y194], the phosphorylation enrichment was 0.501.

These sequences were tested against FGFR1 (UniProt P11362) in the same assay as above.
Chain of FGFR1 (P11362 whole entry, looked up): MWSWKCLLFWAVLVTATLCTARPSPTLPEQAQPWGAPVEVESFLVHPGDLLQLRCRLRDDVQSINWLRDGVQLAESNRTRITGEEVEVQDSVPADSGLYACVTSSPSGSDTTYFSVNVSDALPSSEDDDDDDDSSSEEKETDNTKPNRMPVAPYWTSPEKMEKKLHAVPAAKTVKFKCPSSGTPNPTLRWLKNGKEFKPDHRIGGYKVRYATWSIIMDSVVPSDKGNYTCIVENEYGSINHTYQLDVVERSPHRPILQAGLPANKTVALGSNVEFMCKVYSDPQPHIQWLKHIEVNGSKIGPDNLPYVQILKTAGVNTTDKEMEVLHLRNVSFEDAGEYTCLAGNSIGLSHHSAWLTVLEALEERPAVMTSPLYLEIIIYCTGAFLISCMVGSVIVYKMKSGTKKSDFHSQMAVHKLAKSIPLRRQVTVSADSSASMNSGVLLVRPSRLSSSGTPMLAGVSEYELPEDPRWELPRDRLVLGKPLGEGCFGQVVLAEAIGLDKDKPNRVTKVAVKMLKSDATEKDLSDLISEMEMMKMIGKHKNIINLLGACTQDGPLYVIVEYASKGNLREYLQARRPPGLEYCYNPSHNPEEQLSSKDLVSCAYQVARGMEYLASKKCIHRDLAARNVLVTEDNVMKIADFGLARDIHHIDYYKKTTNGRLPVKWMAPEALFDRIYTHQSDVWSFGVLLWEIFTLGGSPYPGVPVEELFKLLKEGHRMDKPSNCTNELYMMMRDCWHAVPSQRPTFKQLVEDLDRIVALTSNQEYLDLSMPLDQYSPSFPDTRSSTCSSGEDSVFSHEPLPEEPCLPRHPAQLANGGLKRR
Work on KKCTRYIDCAL [ASPA_Y64_D68A] yielded a phosphorylation enrichment of 0.394. For ESMQSYDLDFP [UNC13B_Y243_D238E_YF], the phosphorylation enrichment was 0.568. Sequence DSFSSYCNAVA [SLC20A2_Y436_YF] has a phosphorylation enrichment of 0.497. Work on FTAVGYHKHIT [NOMO1_Y1137] yielded a phosphorylation enrichment of 0.485. RFLERYIFNRE [HLA-DPB1_Y57_YF] showed a phosphorylation enrichment of 0.329. Sequence VEYAKYGSLRG [RET_Y809] has a phosphorylation enrichment of 0.349. For SRVNKYSTAFG [GJB3_Y16_G12R], the phosphorylation enrichment was 0.383. Work on HKDNNYVSMWF [PAPOLG_Y432] yielded a phosphorylation enrichment of 3.98. In the case of VCRHNYGVVES [HLA-DRB1_Y112_Y107V], the phosphorylation enrichment is reported as 0.547. Work on FLTSSYINIST [IL23R_Y178_YF] yielded a phosphorylation enrichment of 0.517. For HNLDFYKMTTN [FGFR3_Y648_K650M_YF], the phosphorylation enrichment was 1.45. RDVEQYVNNVN [PCDH19_Y1097_L1094V] gave a phosphorylation enrichment of 0.544. With RLDRSYSFSFS [PEAR1_Y890_YF] the phosphorylation enrichment was 0.738. ETESPYQELQG [TYROBP_Y91] gave a phosphorylation enrichment of 0.91. With SGGGSYGSGGG [KRT1_Y539] the phosphorylation enrichment was 0.351. QMVRMYASSFM [AVPR2_Y124_G122R_YF] showed a phosphorylation enrichment of 0.605. TKQLTYEEQYL [PIK3C3_Y310_D314Y] gave a phosphorylation enrichment of 0.434. In the case of QAKRKYQEVSK [FES_Y156_A159V], the phosphorylation enrichment is reported as 0.424. GKTQQYDCKWF [BCR_Y751_YF] was tested, and the phosphorylation enrichment was 0.472. HVPEEYKPKQG [SAXO2_Y37] gave a phosphorylation enrichment of 0.366. IATTIYSGDKI [UGGT2_Y823_A821T] gave a phosphorylation enrichment of 0.57. Work on LLSVAYKNVVR [YWHAZ_Y48_G53R] yielded a phosphorylation enrichment of 1.03. For GREAEYSDKHG [EPHB4_Y574], the phosphorylation enrichment was 0.388. In the case of VAMDDYLKNVM [LRRK2_Y707], the phosphorylation enrichment is reported as 0.493. In the case of LVSCTYQLARR [FGFR2_Y608_G613R], the phosphorylation enrichment is reported as 0.788. MPPHICAITDT [MYH9_Y151_Y151C] was tested, and the phosphorylation enrichment was 0.578. NLMPAYFKCIQ [CYP21A2_Y190_YF] showed a phosphorylation enrichment of 0.617. FGSLLYKYAFK [FANCD2_Y458] gave a phosphorylation enrichment of 0.352. Sequence IYETDYYQKGG [INSR_Y1189_R1191Q] has a phosphorylation enrichment of 1.52. DENWFYTRAAS [RPS19_Y54] was tested, and the phosphorylation enrichment was 0.402. Work on LKVKAYRFSIS [LCT_Y974] yielded a phosphorylation enrichment of 0.9. LWQSIYNLDAE [TNNT2_Y251_E254D] was tested, and the phosphorylation enrichment was 0.658. GGTPLYMDRQG [AGXT_Y194] gave a phosphorylation enrichment of 0.401.
